Results: CN113388031A (SHANGHAI INSTITUTE FOR ADVANCED STUDY OF ZHEJIANG UNIV, dated 2021)

Target: 新冠病毒RBD蛋白 (SARS-CoV-2 spike receptor binding domain, expressed and purified) (SARS-CoV-2, UniProt P0DTC2 319-541)

B1: 单克隆抗体35B5 (monoclonal antibody 35B5) (antibody, V domains shown, not shown: large carriers)
VH: QVQLLESGGGLVQPGRSLRLSCAASGFTFDDYAMHWVRQAPGKGLEWVSGVSWNSGTIGYADSVKGRFTISRDNAKNSLYLHMRSLRAEDTALYYCAKAVEMVRGLMGLGADPEYGMDVWGQGTTVTVSS
VL: not shown
B1 was tested, and the Kd was 2.19 pM.
